The target of assay [1] is T1, SARS-CoV-2 Spike Trimer, His Tag B.1.1.529/Omicron (ACRO Biosystems Cat. No. SPN-052Hz) (SARS-CoV-2, UniProt P0DTC2 16-1213).
Assay [2] deals with T1, SARS-CoV-2 Spike Trimer, His Tag …. The source holds these as a separate data set.
Assay [3] has as its target SARS-CoV-2 Omicron BA.5 (live virus; spike protein) (SARS-CoV-2, UniProt P0DTC2 14-1273). The experiment in a line: cell-based or functional assay.
The target of assay [4] is T2, SARS-CoV-2 (COVID-19) S protein RBD, His Tag B.1.1.529/Omicron (ACRO Biosystems Cat. No. SPD-052H3) (SARS-CoV-2, UniProt P0DTC2 319-537).
T2 construct: domain: RBD; also called Omicron RBD only; Omicron variant RBD
Kind of assay: SPR (Biacore T200, ACRO Biosystems), 1:1 model.

In assay [5] the target is T3, SARS-CoV-2 Delta variant B.1.617.2, RBD only (SARS-CoV-2, UniProt P0DTC2 319-537).
T3 construct: domain: RBD; also called RBD of the Delta B.1.617.2 variant
Kind of assay: SPR (Biacore T200, ACRO Biosystems), 1:1 model. For orientation: Surface plasmon resonance follows binding to a sensor surface in real time, without labels.

For assay [6], the target named is T1, SARS-CoV-2 Spike Trimer, His Tag …. Kind of assay: SPR (Biacore T200, ACRO Biosystems), 1:1 model.
For assay [7] the target is unchanged. The source holds these as a separate data set.
Assay [8] deals with SARS-CoV-2 Omicron BA4.6 spike protein trimer (SARS-CoV-2, UniProt P0DTC2 16-1213). The experiment in a line: SPR (Biacore 8K, ACRO Biosystems), 1:1 model.
Assay [9] has as its target SARS-CoV-2 Omicron BQ.1.1 spike protein trimer (SARS-CoV-2, UniProt P0DTC2 16-1213). The experiment in a line: SPR (Biacore 8K, ACRO Biosystems), 1:1 model.
Assay [10] addresses SARS-CoV-2 Omicron XBB.1 spike protein trimer (SARS-CoV-2, UniProt P0DTC2 16-1213). The experiment in a line: SPR (Biacore 8K, ACRO Biosystems), 1:1 model.
Assay [11] deals with T4, SARS-CoV-2 Omicron BA.2.75 spike protein trimer (SARS-CoV-2, UniProt P0DTC2 16-1213).
T4 construct: also called Omicron subvariant BA2.75 spike trimer
The experiment in a line: SPR (Biacore T200, ACRO Biosystems), 1:1 model.

The target in assay [12] is SARS-CoV-2 Omicron BA.5 spike protein trimer (SARS-CoV-2, UniProt P0DTC2 16-1213). Kind of assay: SPR (Biacore T200, ACRO Biosystems), 1:1 model.

Changes are numbered by the printed parent chain. Where two headings read alike, the source gives them in different places.

B1: ACE2 LVE IgG Fc STR chimeric antibody (LiVE) (Fc fusion)
chain: QSTIEEQAKLFLDKFNVEAEDLFYQSSLASWNYNTNITEENVQNMNNAGDKWSAFLKEQSTLAQMYPLQEIQELTVKLQLQALQQNGSSVLSEDKSKRLNTILNTMSTIYSTGKVCNPDNPQECLLLEPGLNEIMANSLDYNERLWAWESWRSEVGKQLRPLYEEYVVLKNEMARANHYEDYGDYWRGDYEVNGVDGYDYSRGQLIEDVEHTFEEIKPLYEHLHAYVRAKLMNAYPSYISPIGCLPAHLLGDMWGRFWTNLYSLTVPFGQKPNIDVTDAMVDQAWDAQRIFKEAEKFFVSVGLPNMTQGFWENSMLTDPGNVQKAVCHPTAWDLGKGDFRILMCTKVTMDDFLTAHHEMGHIQYDMAYAAQPFLLRNGANEGFHEAVGEIMSLSAATPKHLKSIGLLSPDFQEDNETEINFLLKQALTIVGTLPFTYMLEKWRWMVFKGEIPKDQWMKKWWEMKREIVGVVEPVPHDETYCDPASLFHVSNDYSFIRYYTRTLYQFQFQEALCQAAKHEGPLHKCDISNSTEAGQKLFNMLRLGKSEPWTLALENVVGAKNMNVRPLLNYFEPLFTWLKDQNKNSFVGWSTDWSPYADQSIKVRISLKSALGDKAYEWNDNEMYLFRSSVAYAMRQYFLKVKNQMILFGEEDVRVANLKPRISFNFFVTAPKNVSDIIPRTEVEKAIRMSRSRINDAFRLNDNSLEFLGIQPTLGPPNQPPVSGGGGSGGGGSDKTHTCPPCPAPESTRGPSVFLFPPKPKDTLMISRTPEVTCVVVDVSHEDPEVKFNWYVDGVEVHNAKTKPREEQYNSTYRVVSVLTVLHQDWLNGKEYKCKVSNKALPAPIEKTISKAKGQPREPQVYTLPPSRDELTKNQVSLTCLVKGFYPSDIAVEWESNGQPENNYKTTPPVLDSDGSFFLYSKLTVDKSRWQQGNVFSCSVMHEALHNHYTQKSLSLSPGK
For B1, the dissociation constant (Kd) – broadly, a measure of binding affinity in units of concentration – was found to be 0.114 nM in assay [1]; 0.144 nM in assay [2]; 0.308 nM in assay [4]; 0.554 nM in assay [5]; 0.144 nM in [6]. The koff (commonly the rate constant with which the complex falls apart) in [2] is 0.000153 s⁻¹. The kon (usually the second-order rate constant of association) in assay [2] is 1.06e+06 M⁻¹ s⁻¹. In addition, the “IC50 of inhibition of viral replication (human airway organoids)” value in [3] came to 0.0299 µg/mL.

B2: ACE2 LVE IgG Fc STR YTE chimeric antibody (LiVE Longer) (Fc fusion)
chain: B1 chain with M765Y, S767T, T769E
With B2, the Kd in [1] was determined as 0.0734 nM; in [8] it was 0.845 nM; in assay [9], 0.00181 nM; in assay [10], 0.215 nM; in [11], 0.000133 nM; in assay [12], 0.00543 nM. Also, the Kd was 0.402 nM in assay [4] and 0.073 nM in [6]. Besides, the koff in assay [7] was determined as 0.000117 s⁻¹. In assay [7], this molecule displayed a kon of 1.59e+06 M⁻¹ s⁻¹. Besides, the “IC50 of inhibition of viral replication (human airway organoids)” value in assay [3] amounted to 0.0269 µg/mL.

Values taken from US20230374153A1 (PARADIGM IMMUNOTERAPEUTICS, published 2023).
